Consider 1 substance from paper PMC7684303.

The target of this test is MBS complex (membrane-bound sulfane sulfur reductase), monomeric 13-subunit complex (Pyrococcus furiosus). Briefly: cryo-EM structure; MBS purified in DDM, ~5 mg/ml; grids prepared under aerobic conditions; twofold symmetry applied; overall resolution 4.0 Å.

The stoichiometry N is a count of units in the complex or per binding partner. On to “MBS complex (membrane-bound sulfane sulfur reductase), monomeric 13-subunit complex”, for which the stoichiometry N was 2.
